Data on five substances can be found in IntAct's records for PubMed 32433612.

The target of this experiment is tasl_human TASL (UniProt Q9HAI6).
Take “Solute carrier family 15 member 4 (Homo sapiens), Q8N697 E44A”: the “effect of a mutation on the interaction” value is on record as “with no effect”.
The same measure for “Solute carrier family 15 member 4 (Homo sapiens), Q8N697 E47A”: “with no effect”.
The same measure for “Solute carrier family 15 member 4 (Homo sapiens), Q8N697 E465A”: “disrupting interaction strength”; for “Solute carrier family 15 member 4 (Homo sapiens), Q8N697 E465K”: “disrupting interaction strength”; for “Solute carrier family 15 member 4 (Homo sapiens), Q8N697 L14A;L15A”: “with no effect”.
